Where a chain is given by its changes, count along the chain named. Names may count otherwise.
T1: human TL1A, soluble, CHO-expressed, residues 72-251 of SEQ ID NO:244 with N-terminal His6-tag (human, UniProt O95150 72-251)
T1 construct: also called hTL1A; hTL1A (CHO)
T1 sequence: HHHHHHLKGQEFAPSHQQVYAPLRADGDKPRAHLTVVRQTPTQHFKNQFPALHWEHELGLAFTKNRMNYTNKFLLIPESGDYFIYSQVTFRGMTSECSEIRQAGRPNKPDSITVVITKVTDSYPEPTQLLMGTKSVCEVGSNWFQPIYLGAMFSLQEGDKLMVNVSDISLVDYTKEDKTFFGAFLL

T2: cynomolgus monkey TL1A, soluble, CHO-expressed, residues 72-251 of SEQ ID NO:248 with N-terminal His6-tag (cynomolgus monkey (Macaca fascicularis), UniProt O95150 72-251 (human entry))
T2 construct: also called MfTL1A; MfTL1A (CHO)
T2 chain: T1 sequence with F45L, I84V

T3: cynomolgus monkey TL1A, soluble, E. coli-expressed, residues 72-251 of SEQ ID NO:248 (cynomolgus monkey (Macaca fascicularis), UniProt O95150 72-251 (human entry))
T3 construct: with or without N-terminal Met; also called MfTL1A (E. Coli)
T3 chain: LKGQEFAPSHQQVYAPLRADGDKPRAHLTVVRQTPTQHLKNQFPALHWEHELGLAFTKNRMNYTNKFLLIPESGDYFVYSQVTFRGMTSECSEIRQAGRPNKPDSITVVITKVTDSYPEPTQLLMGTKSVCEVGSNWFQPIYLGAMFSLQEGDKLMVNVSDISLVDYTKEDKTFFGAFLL

T4: Fhm, hTL1A(Q167R), soluble, E. coli-expressed, residues 72-251 of SEQ ID NO:246 (human, UniProt O95150 72-251)
T4 construct: with or without N-terminal Met
T4 chain: T3 chain with L39F, V78I, Q96R

B1: H4H1805N (antibody, human IgG4 S228P, V domains shown)
VH: QVQLQQWGAGLLKPSETLSLTCAVYGGSFTGFYWSWIRQPPGKGLEWIGEINHRGNTNYNPSLKSRVTMSVDTSKNQFSLNMISVTAADTAMYFCASPFYDFWSGSDYWGQGTLVTVSS
VL: DIMLTQTPLTSPVTLGQPASISCKSSQSLVHSDGNTYLSWLQQRPGQPPRLLFYKISNRFSGVPDRFSGSGAGTDFTLKISRVEAEDVGVYYCMQATQFPLTFGGGTKVEIK
notes: human IgG4(S108P) form of H2M1805N
B2: H4H1817N (antibody, human IgG4 S228P, V domains shown)
VH: QVQLQQWGAGLLKPSETLSLTCAVSGGSFSDYFWTWIRQPPGKGLEWIGEISHSGRTNYNPSLKSRVTISVDTSMSQFSLKMTSVTAADSAVYYCARDYPNWVFDYWGQGTLVTVSS
VL: EIELTQSPGTLSLSPGEGATLSCRASQSVFNSYLAWYQQKPGQAPRLLIYGASRRATGIPDRFSGSGSGTDFTLTISRLEPGDFAVYFCQQYGNSPLTFGGGTKVEIK
notes: human IgG4(S108P) form of H2M1817N
B3: H4H1804N (antibody, human IgG4 S228P, V domains shown)
VH: QVQLHQWGAGLLKPSETLSLTCAVSGVSFSDYHWAWIRQSPGKGLEWIGDINHRGRTNYNPSLKSRVTISLDTSGNPFSLKLTSVTAADTAVYYCARDFPNWVFDSWGQGILVTVSS
VL: EIVLSQSPGTLSLSPGERATLSCRASQSVSSSFLAWYQQYPGQAPRLLIYGASRRATGIPDRFRGSGSGTDFTLTISRLEPEDFAVYYCQQYGSSPLTFGGGTKVENK
notes: human IgG4(S108P) form of H2M1804N
B4: H4H1719P (antibody, human IgG4 S228P, V domains shown)
VH: EVQLVESGGGLVQPGRSLRLSCVASGFTFQDYAMHWVRQAPGKGLEWVSGINWISDDMGYADSVMGRFTISRDNAKNSLYLQMDSLRAEDTALYYCAKDKGLRFLDYVMDVWGQGTTVTVSA
VL: DIVMTQSPLSLPVTPGEPASISCRSTQSLLHRNGHNYLHWYLHKPGQSPQLLIHLGSNRASGVPDRFSGSGSGTDFTLKISRVEAEDVGVYYCMQALQTPYTFGQGTKLEIK
B5: H4H1681N (antibody, human IgG4 S228P, V domains shown)
VH: EVQLLESGGGLVQPGKSLRLSCAVSGFTFSTYGMNWVRQAPGKGLEWVSSISGTGRTTYHADSVQGRFTVSRDNSKNILYLQMNSLRADDTAVYFCTKERGDYYYGVFDYWGQGTLVTVSS
VL: DIQMTQSPSTLSASVGDRVTITCRASQTISSWLAWYQQTPEKAPKLLIYAASNLQSGVPSRFSGSGSGTEFTLTISSLQPDDFATYYCQQYHRSWTFGQGTKVEIT
B6: H4H1750P (antibody, human IgG4 S228P, V domains shown)
VH: QVQLVESGGGVVQPGRSLRLSCVASGFTFSNYGMHWVRQAPGKGLEWVAVISYDGNNDLYSDSVKGRFTISRDNAKNALSLQMTSLRAEDTAVYYCARDSTMTPYYYHGIDVWGQGTTVTVSA
VL: DIQMTQSPSSLSASVGDRVTITCRASQDIRNDLGWYQQKPGKAPKRLIYAASSLQSGVPSRFSGSGSGTDFTLTISSLQPEDFATYYCLQHNSYPPTFGQGTKVEIK
B7: H4H1704N (antibody, human IgG4 S228P, V domains shown)
VH: EVQLVESGGGLVQPGGSLRLSCAVSGFTFSSYWMSWVRQAPGKGLEWVANIKEDGSEKNYVDSVKGRFTLSSDNAKNSLYLQMNSLRAEDTAVYYCAREDYDSYYKYGMDVWGQGTAVIVSS
VL: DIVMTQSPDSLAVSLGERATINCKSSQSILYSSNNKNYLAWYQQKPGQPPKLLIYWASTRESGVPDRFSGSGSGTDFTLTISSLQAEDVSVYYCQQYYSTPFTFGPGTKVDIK
notes: human IgG4(S108P) form of H2M1704N
B8: H4H1752P (antibody, human IgG4 S228P, V domains shown)
VH: EVQLVESGGGLVQPGGSLRLSCSASGFTFSKYVMTWVRQAPGKGLEWVSAIGPTGRTTEYADSVQGRFTISRDNSMNTVFLHLNSLTAEDTAEYYCAKMFDWNYDVYFDSWGQGTLVTVSS
VL: DIQMTQSPSILSASVGDRVTITCRTSQSISNWLAWYQQKPGKAPNLLIYKASSLESGVPSRFSGSGSGTEFTLTISSLQPDDFATYYCQQYYRYWTFGQGTKVEIK
B9: H4H1742P (antibody, human IgG4 S228P, V domains shown)
VH: EVQLVESGGGLVQPGGSLRLSCAASGFTFSNYVMNWVRQAPGKGLEWVSVISGSGGSTHYADSVKGRFTISRDNSKDALYLQMNSLRAEDTAVYYCAKGPLEAYYYYNGMDVWGQGTTVTVSS
VL: DIQLTQSPSFLSASVGDRVTITCWASQAISSYLAWYQHKPGRAPKLLIYSTSTLQSGVPSRFSGSGSGTEFTLTISSLQPEDFATYYCQQLNSYPTFGQGTKLEIK
B10: H4H1818N (antibody, human IgG4 S228P, V domains shown)
VH: RLQLVESGGGLVKPGGSLKLSCAASGFTISDYYMSWIRQAPGKGLEWVSYIGGSGSTIYYADSVKGRFTISRDNAKNSLYLQMNSLRAEDTAVYYCAREDADSYYYYGMDVWGQGTTVTVSS
VL: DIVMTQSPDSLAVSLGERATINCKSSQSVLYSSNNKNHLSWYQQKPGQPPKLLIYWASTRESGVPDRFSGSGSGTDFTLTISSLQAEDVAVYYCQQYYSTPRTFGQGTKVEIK
notes: human IgG4(S108P) form of H2M1818N

Columns and labels:
[1] = molecular target: T1, human TL1A, soluble, CHO-expressed, …; experiment: ELISA, blocks hTL1A (150 pM) binding hDR3-Fc
Method: (§1) The ability of antibodies to block human TL1A binding to its cognate receptors, the DR3 and DcR3 receptors, was measured using a competition sandwich ELISA. In addition, blocking of a human TL1A variant FHM (human TL1A Q167R) and the cynomolgus monkey (Macaca fascicularis) TL1A (MfTL1A) protein binding to the human DR3 or DcR3 receptors was measured in the same manner. Constant amounts of biotinylated human TL1A or FHM (both expressed with a 6-His tag in CHO cells) or biotinylated MfTL1A (expressed in CHO cells) were separately titrated with varying amounts of antibodies. The antibody-protein complexes were incubated in solution (1 hr, 25° C.) and then transferred to microtiter plates coated with human DR3 (hDR3) or human DcR3 (hDcR3) expressed as human IgG1 Fc fusion proteins. After one hour at 25° C. the wells were washed, and bound human or monkey TL1A was detected with streptavidin conjugated with horseradish peroxidase (HRP). Wells were developed with a TMB solution to produce a colorimetric reaction and quenched with aqueous sulfuric acid before reading absorbance at 450 nm on a Perkin-Elmer Victor X5 plate reader. A sigmoidal dose-response curve was fit to the data using the Prism™ data analysis package. […] Both fully human anti-hTL1A mAbs and comparator antibodies, i.e., control mAb1 (an anti-hTL1A antibody with heavy and light chain variable domains having the amino acid sequences corresponding to SEQ ID NOS:21 and 27, respectively, of US 2009/0280116) and control mAb3 (an anti-hTL1A antibody with heavy and light chain variable domains having the amino acid sequences corresponding to SEQ ID NOS:57 and 48, respectively, of US 2009/0280116), were included in the study. NB: No binding under the conditions tested; NT: Not tested. Concentrations of biotinylated soluble ligands: (1) 150 pM; (2) 500 pM; (3) 10 pM; and (4) 50 pM.

[2] = molecular target: T2, cynomolgus monkey TL1A, soluble, …; experiment: ELISA, blocks MfTL1A (50 pM) binding hDcR3-Fc
Method: as §1

[3] = molecular target: T2, cynomolgus monkey TL1A, soluble, …; experiment: ELISA, blocks MfTL1A (500 pM) binding hDR3-Fc
Method: as §1

[4] = molecular target: T1, human TL1A, soluble, CHO-expressed, …; experiment: cell-based or functional assay
[5] = molecular target: T1, human TL1A, soluble, CHO-expressed, …; experiment: ELISA, blocks hTL1A (10 pM) binding hDcR3-Fc
Method: as §1

[6] = molecular target: T2, cynomolgus monkey TL1A, soluble, …; experiment: SPR 37C, mAb captured
Method in brief: (§2)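 Biacore T100 SPR with captured mAb and soluble TL1A/Fhm analyte; ka and kd fitted to a 1:1 model assuming monomeric TL1A. KD = kd/ka; t1/2 (min) = ln2/(60·kd).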

[7] = molecular target: T3, cynomolgus monkey TL1A, soluble, E. …; experiment: SPR 25C, mAb captured
Method in brief: as §2

[8] = molecular target: T4, Fhm, hTL1A(Q167R), soluble, E. …; experiment: SPR 25C, mAb captured
Method in brief: as §2

Row | Binder | IC50 [1] | IC50 [2] | IC50 [3] | Average % Blocking IFN-g, 3 ug/ml mAb [4] | IC50 [5] | Kd [6] | t1/2 [6] | Kd [7] | t1/2 [7] | Kd [8] | t1/2 [8] | binding result [8]
1 | B1 | 0.014 nM | 0.313 nM | 0.026 nM | 94% | 0.033 nM | 0.352 nM | 1.13 h |  |  |  |  | 
2 | B2 | 0.114 nM | 0.322 nM | 0.101 nM | 98% | 0.27 nM | 0.0256 nM | 19.2 h |  |  |  |  | 
3 | B3 | 0.04 nM | 0.034 nM | 0.071 nM | 98% | 0.175 nM | 0.078 nM | 2.78 h |  |  |  |  | 
4 | B4 | 0.022 nM | 0.061 nM | 0.046 nM | 78% | 0.044 nM | 0.00201 nM | 96.4 h | 0.242 nM | 1.32 h | 0.109 nM | 1.6 h | 
5 | B5 | 0.06 nM | 0.093 nM | 0.141 nM | 95% | 0.017 nM | 0.226 nM | 0.533 h |  |  |  |  | 
6 | B6 | 0.341 nM |  |  | 89% | 0.656 nM |  |  | 52.7 nM | 0.0667 h | 0.204 nM | 10.4 h | 
7 | B7 | 0.03 nM | 0.11 nM | 0.042 nM | 98% | 0.077 nM |  |  |  |  |  |  | 
8 | B8 | 0.104 nM | 0.056 nM | 0.11 nM | 71% | 0.031 nM | 0.223 nM | 1.52 h | 0.274 nM | 2.03 h |  |  | no binding (tested: up to 100 nM)
9 | B9 | 0.064 nM | 0.127 nM | 0.24 nM | 83% | 0.181 nM |  |  | 0.593 nM | 1.62 h | 0.437 nM | 2.15 h | 
10 | B10 | 0.119 nM | 1.1 nM | 0.123 nM | 71% | 0.232 nM |  |  |  |  |  |  | 
